Source: the nanobody polyreactivity screen of Harvey et al. (2022)

Test: yeast display, Sf9 membrane polyspecificity reagent, FACS + sequencing; frameworks hold sequencing errors
Procedure, shortened: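 Nanobodies from a synthetic yeast display library (Saccharomyces cerevisiae BJ5465), induced 36–48 hours with galactose, were stained 1 hour at 4 °C with 10% biotinylated, detergent-solubilized Sf9 membrane reagent, enriched on streptavidin microbeads, then FACS-sorted. Anti-HA (expression) and streptavidin (reagent binding) fluorescence set low and high (top ~1%) gates. Polyreactivity labels come from the gate of origin. Genes were colony-PCR amplified, MiSeq 2 × 250 sequenced and filtered by CDR length.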

| Sequence | polyreactivity (PSR sort gate) |
| --- | --- |
| QVQLVESGGGLVQAGGSLRLSCAASGRTFQYYAMGWYRQAPGKERELVAAITSGGSTYYADSVTGRFTISRDNAKYTVYLQLNSLKPEDTAVYYCDATFYYSGHDDYWGQGTLVTVSS | low polyreactivity |
| QVQLVESGGGLVQAGGSLRLSCAASGFTFVGNAMGWYRQAPGLERELVAAITRGGSSYYADSVKGRFTISRDNAKKTVYLQMNSLKPEDTAVYYCNAELPVHWSWYDYWGQGTQVTVSS | low polyreactivity |
| QVQLVESVGGLVQAGGSLRLSCAASGRIFNYNAMGWYRQAPGKERELVAAITSSGDSTNYADSVKGRFTISRDNAKNTVYLQMNSLKPEDTAVYYCNASSPYDYDWGQGTQVTVSS | low polyreactivity |
| QVQLVESGGGLVQAGGSLRLSCAASGRIFKDHAMGWYRQAPGKERELVAGITSIGDNTYYADSVKGRFTISRDNAKNTVYLQMNSLKPEHTAVYYCNADYGYDSVVEYDYWGQGTQVTVSS | low polyreactivity |
| QVQLVESGVGLVQAGGSLRLSCAASGITFSSYAMGWYRQAPGKERELVAAITRSGSTTYADSVKGRFTISRDNAKNTVYLQMNSLKPEDTAVYYCAVDYYYLTGGVDYWGQGTQVTVSS | low polyreactivity |
| QDQLVESGGGLVQAGGSLRLSCAASGLIIRWYAMGWDRQAPGKERELVAAISGNGGRTYYADSVKGRFTISRDNASNTVYLQMNSLKPEDTAVYYCAAEYRRALGVDYWGQGTQVTVSW | high polyreactivity |
| QVQLVESGGGLVQAGGSLRLTCAASGFIFGYNAMGWYRQAPGKERELVAAISSSGGSTYYADSVKGRFTISRDNAKNTVSLQMNSLKPEDTAVYYCAARPVALRKYDYWGQGTQVTVSS | low polyreactivity |
| QVQLVESGGGLVQAGGSLRLSCAASGSTFPSNAMGWYRQAPGKERELVAAISRGGGTTYYADSVKGRFTISRDNAKNTVYLQMNSLKPEDTAVYYCATRGSVGWFDGGGYWGQGTQVTVSS | high polyreactivity |
| QVQLVESGGGLDQAGGRLRLICAASGNTFRFYTLGWYRQAPGQETEFVAAINSSGRTNYADSVKGRFTISRDNATNTVYLQMNSLKPEDTAVYYCAADYYQRSTFLGVDEYDYWGQGTQVTVSS | low polyreactivity |
| QVQLVESGGGLVQAGGSLRLSCAASGRTFYRYAMGWYRQAPGKEREFVAAISNGGSNTRYADSVKGRFTISRDNAKNTVYLQMNSLKPEDTAVYYCAADYKRNQEVDYWGQGTQVTVSS | high polyreactivity |
| QVQLVESGGGLVQAGGSLRLSCAASGSSFAENAMGWSRQAPGKERELVATIRSGGSTYADSVKGRFTISRDNAKKTVNLQMNILKPEDTAVYYCATDRYPHSATPGDYWGQGTQVTVSS | low polyreactivity |
| QVQLVESGGGLVQAGGSLRLSCAASGRIFPENAMGWYRQAPGKERELVAAINNNDGDTYYADSVKGRFTISRDNAKNTVYLQMNSLKPEDTAVYYCAADEAYWLSYVWGIGYDYWGQGTQVTVSS | low polyreactivity |
| QVQLVESGGGLVQSGGSLRLSCAASGITFARYTMGWYRQAPGKVRELVAAISYAGNTYYADSVKGRFTISRDNAKNTVYLQMNSLKPEDTAVYYCAREYTYYPRWVGYDAYGEDYWGQGTQVTVSS | low polyreactivity |
| QVQLVESGGGLVQAGGSLRLSCAASGSTFLLNTMGWYRQAPGKERELVAVINSDDSTYYADSVKGRFTISRDNAKNTVYLQMNSLKPEDTAVYYCAAEPQYTRHMDSWGQGTQVTVSS | low polyreactivity |
| QVQLVESGGGLVQAGGSLRLSCAASGSIFALYAIGWYRQAPGKEREFVAAISYNGGSTYYADSVKGRFTISRDNAKNTVYLQMNSLKPEDTAVYYCNDVYYDSGVVGYYYWGQGTQVTVSS | high polyreactivity |
| QLQLEESGGGLVQAGGSLRISCDASGTIFGNYAMGWYRQAPGKERELVAAITGSGGRTYYADSVKGRFTISRDNAKNTVYLQMNSLKPEDTAVYYCAARSYGRWYYTLYNYWGQGTQVTVSS | high polyreactivity |
| QEQLQESGGGQVQAGGSLLLSCAASGNIIRYYYMGWYRQAPGKERELVAAITYGTSTNDADSVKGRFTISRDNAKNTVYLQMNSLKPEDTAVYYCAVDVNYGDPLDNWGQGTQVTVSS | high polyreactivity |
| QVQLVESGGGLVQAGGSLRLSCAASGGIFSKNVMGWYRQAPGKERELVAAISRGGTTSYADSVKGRFTISRDNAKNTVYLQMNSLKPEDTAVYFCAAKYWWYPYFTVDYDYWGQGTQVTVSS | high polyreactivity |
| QFQLVESGGGLVQAGGSLRLSCAASGRILSGNAMGWYRQAPGKERELVAAITNAGITKYADSVKGRFTISRDNAKNTVYLQMNSLKPEDTAVYYCATDRYAYNLYDYWGQGTQVTVSS | low polyreactivity |
| QVQLVESGGGLVQAGGSLRLSCAASGRIFLRYAMGWYRQAPGKERELVAVISSGGSTYYADSVKGRFTISSDNAKNTVYLQMNSLKPEDSAVYYCAASRHDSRYQYDYWGQGTQVTVSS | high polyreactivity |
| QVQLVESGGGLVQAGGSLRLSCAASGLILYRYAMGWYRQAPGKERELVAAITTSGSSTFYADSVKGRFTISRDNAKNTVYLQMNSLKPEDTAVYYCAATRPRYGIYWYDYWGQGTQVTVSS | high polyreactivity |
| QVQLVESGGGLVQAGRSLRLICAASGFTFYSYAMGWYRQAPGKERELVANITIGGSTYADSVKGRFTISRDNAKNTVYLQMNSLKPEDTAVYYCARGYRVVGDPLYGDYDYWGQGTQVTVSS | low polyreactivity |

| Sequence | polyreactivity (PSR sort gate) |
| --- | --- |
| QVQLVESGGGLVQAGGSLRLSCAASGFTFNVNAMGWYRQAPGKERELVATITWSDGSTRYADSVKGRFTISRDNAKNTVYLQMNSLKPEDTAVYYCAAESSECTSGDYDYWGQCTQVTVSS | low polyreactivity |
| QVQLVESGGGLVQAGGSLRLSCAASGSTFYTNAMGWDRPAPGKEREVVAAISWSGSSTYADSVKGRFTISRDNAKNTVYLQMNSLKPEDTAVYYCAADWFKLRTDYYWGQGTQVTVSS | low polyreactivity |
| QVQLVESGGGLVPAGGSLRLSCAASGSTFHYYTMGWYRQAPGKERELVAAISWRGTSTYYADSVKGRFTISRDNAKNTVYLQMNSLKAEDTGVYYCAVRSSPGAGYYYWGQGTQVTVSS | high polyreactivity |
| QVQLVESGGGLVQAGGSLRLSCAASGSTFWFYAMGWYRQAPGKERELDAAISNGDSTNYADSVKGRFTISRDNAKNTVYLQMNSLKPEDTAVYYCAADQVYGIGYEYWGQGTQVTVSS | low polyreactivity |
| QVQLGESGGGLVQAGGSLRLSCAASGRTFVSNAMGWYRPAPGNERELVAAITQSGGSTYADSVKGRFTISRDNAKNTVYLQMNSLKPEDTAVYYCNADHAFVGTYYERHDYWGQGTQVTVSS | low polyreactivity |
| QVQLVESGGGLVQAGGSLLLSCAASGRTFILNAMGWYSQAPGKERELVAAISWSGGSTYYADSVKGRFTISRDNAKNTVYLQMNSLKPEDTAVYYCAAETYAYLFHTYDYWGQGTQVTVSS | low polyreactivity |
| QVQLVESAGGLVQAGGSLRLSCAASGITLSYNAMGWYRQAPGKERELVAAISARGGSTYYADSVKGRFTISRDPAKNTVYLQMYSLKPEDTAVYYCAAPRGWRQNKYDYWGQVTQVTVSS | high polyreactivity |
| QVQLVESGGRLVQAGGSLRLSCAASGLTFDPNDMGWYRQAPGKERELVAAISWSSGSTYYADSVKGRFTISRDNAKNTVYLQMNSLKPEDTAVYYCAAYFTLLFGTELYDYDYWGQGTQVTVSS | high polyreactivity |
| QVQQHESGDGLVQAVGSLRLTCAASGYISGNYYMGWYRQATGKERELVAGIDAFGSSTNYADCVKGRFTISRDNAKNTVYLQMNSLKPEDTAVYYCAARPDGDRLFYYWGQGTQVTVSS | low polyreactivity |
| QVQLVESGGGLVQAGGSLRLSCAASGSIFGYNAMGWYRQAPGKERELVAAISYSGGRTYYADSVKGRFTISRDNAKHTVYFQKNRLKPEDTAVYYCAKYKVGYVPSGYRYDSWGQGTQVTVSS | high polyreactivity |
| QVQHVESGGGLVQAGGSHRLSCAASGSTFTYYAMGWYRQAPGKERELVAAISRGGSTYYADSVKGRFTISRDNAKNTVYLKKYSLKPEDTAVYYCAAERGYKKWSRGYWGQGTLVTVSS | high polyreactivity |
| QVQLVESGGGLVQAGGSLRLSCAASGRTFYWNAMGWYRQAPGKEREFVAAITNTAGYTYYADSVKGRFTISRDNAKNTVYLQMNSLKPEDTAVYYCAKSGNAGYRTYLRDYWGQGTQVTVSS | low polyreactivity |
| QVQLVDSGGGLVQAGGSLRLSCAASGRIFFPNGMGWYRQAPGKERELVATISRIGGSTYYADSVKGRFTISRDNAMNTVYLQRNSLKPEDTAVYYCAAQYSYGVYWTLPYGYNYWGQGTQVTVSS | low polyreactivity |
| QVQLVESGGGLVMAGGRLRLSCAASGSTFGYYAMGWYRQAPGKERELVAVITTRVGSTYYADSVKGRFTFSRDNAKNTVYLQMNSLKPEDTAVYYCNASGRTRSYSGSFSKHYYWGQGTQVTVSS | high polyreactivity |
| QVQLVESGGGLVQAGGSLRLSCAASGTFKWYAMGWYRQAPGKERELVAVISSSSSTNYADSVKGRFTISRDNAKNTVYLQMNSLKPKIPAVYYCNAKWTTLFDYWGQGTQVTVSS | high polyreactivity |
| QVQLVESGGGLVQAGGSLRLSCAASGLTLNYYAMGWYRQAPGKERELVASISRSGGRTYYADSVKGRFTISRVNAKNTVYLQMNSLKPDDSAVYYCNADWYRGRYDYWGQGTQVTVSS | high polyreactivity |
| QVQLVESGGGLVQAGGSLRLSSAASGFTFSGYDMGWYRQAPGKERELVAGISSGGVSTTYADSVNGRFTISRDNAKNTVYLQMNSLKQEDTAVYYCNAEWTSFDWGQGTQVTVSS | low polyreactivity |
| QVQLVESGGGLVQAGGSLRLSCAASGRTFISNAMGWYRQAPGKERELVAAISSVGSTNYADSVKGRFTISRDNAKNTVYLQMKSLKPEDTAVYYCAAGRFWFLAHYGGYYWGQGTQVTVSS | high polyreactivity |
| QVQLVESGGGLVQAGGSLRLSCAASGSIFGYYTMGWYRQAPGKERELVARISSSGARTYYADSVKGRFTISRDNAKNTVYLQMNSLKPEDTAVYYCNAQFGYRTIYYISQYYEYGYWGQGTQVTVSS | high polyreactivity |
| QVQLVESGGGLVQAGGSLRLSCAASGSIFSSNAMGWYRPAPGKERELVAAISWNGGRTYYADSVKGRFTISRDNAKNTVYLQMNSLKPEDTAVYYCATRFYRPRDGLYDYWGQGTQVTVSS | high polyreactivity |
| QVQLVESGGGLVQAGGSLRLSCAASGRIFGPYAMGWYRQAPGKERELVASISYSRGSTYYADSVKGRFTISRDNANNTVYLQMNSLKPEDTAVYYCAKGGYWRGYNYWGQGSQVTVSS | low polyreactivity |
